Experiments:
Experiment in all cases: cell_activity
[1] = tested on: ZFN pair 30035 / 30054 (AAVS1) (artificial)
[2] = tested on: ZFN pair 30035 / 30054 ELD_KKR_I479T I479T (FokI, both ZFNs) (artificial)
[3] = tested on: ZFN pair 30035 / 30054 ELD_KKR_K525A K525A (FokI, both ZFNs) (artificial)
[4] = tested on: ZFN pair 30035 / 30054 ELD_KKR_K525P K525P (FokI, both ZFNs) (artificial)
[5] = tested on: ZFN pair 30035 / 30054 ELD_KKR_Q481E Q481E (FokI, both ZFNs) (artificial)
[6] = tested on: ZFN pair 30035 / 30054 ELD_KKR_R416D R416D (FokI, both ZFNs) (artificial)
[7] = tested on: ZFN pair 30035 / 30054 ELD_KKR_R416E R416E (FokI, both ZFNs) (artificial)
[8] = tested on: ZFN pair 52742-ELD / 52774-KKR K387S K387S (FokI of 52774) (artificial); settings: 400 ng mRNA
[9] = tested on: ZFN pair 52742-ELD / 52774-KKR K525S K525S (FokI of 52774) (artificial); settings: 400 ng mRNA
[10] = tested on: ZFN pair 52742-ELD / 52774-KKR R416S R416S (FokI of 52774) (artificial); settings: 400 ng mRNA
[11] = tested on: ZFN pair 52742-ELD R422S / 52774-KKR R422S (FokI of 52742) (artificial); settings: 400 ng mRNA
[12] = tested on: ZFN pair 52742-ELD R447S / 52774-KKR R447S (FokI of 52742) (artificial); settings: 400 ng mRNA
[13] = tested on: ZFN pair 52742-F1RQ;F3RQ;F5RQ / 52774 R(-5)Q in F1, F3 and F5 of 52742 (artificial); settings: 6 ug dose
[14] = tested on: ZFN pair SBS52742-ELD / SBS52774-KKR (TRAC) (artificial)
[15] = tested on: ZFN pair SBS51857-ELD / SBS51949-KKR (BCL11A) (artificial)
[16] = tested on: ZFN pair SBS51857-ELD / SBS51949-KKR R416S R416S (FokI of 51949) (artificial)
[17] = tested on: ZFN pair SBS51857-ELD / SBS51949-KKR K448S K448S (FokI of 51949) (artificial); settings: 60 ug/mL each mRNA
[18] = tested on: ZFN pair SBS51857-ELD / SBS51949-KKR K525S K525S (FokI of 51949) (artificial); settings: 60 ug/mL each mRNA
[19] = tested on: ZFN pair SBS51857-ELD / SBS51949-KKR R447S R447S (FokI of 51949) (artificial); settings: CD34+ cells, near background
[20] = tested on: ZFN pair SBS63014 / SBS65526 (3x R-5Q / 4x R-5Q + FokI R416S) three and four finger R(-5)Q; FokI R416S in 65526 (artificial); settings: 60 ug dose
[21] = tested on: ZFN pair SBS63014 / SBS65527 (3x R-5Q / 5x R-5Q + FokI R416S) three and five finger R(-5)Q; FokI R416S in 65527 (artificial); settings: 60 ug dose; no evidence of cleavage
[22] = tested on: ZFN pair SBS63014 / SBS65721 (3x R-5Q / 3x R-5Q + FokI R416S) three finger R(-5)Q in each ZFN; FokI R416S in 65721 (artificial); settings: 60 ug dose
[23] = CD34+ cells, 2 ug mRNA each ZFN

AAVS1 intended target gave an activity [1] of 57.8 % indels, an activity [2] of 52.5 % indels and an activity [3] of 73.8 % indels. The activity [4] was 0.01 % indels, the activity [5] was 69.9 % indels and the activity [6] was 70.6 % indels. It also gave an activity [7] of 91.1 % indels.
“CCATATGCAGAAAACAGAAACTGTACCCCTTCCTTACACC (double strand) [off-target XSKWTVWD (OT16)]” showed an activity [8] of 3.12 % indels, an activity [9] of 0.96 % indels and an activity [10] of 0.74 % indels. It also gave an activity [11] of 1.18 % indels, an activity [12] of 0.32 % indels and an activity ([13]; parent 19.16) of 1.43 % indels. The activity ([14]; 400 ng mRNA each ZFN) was 7.39 % indels.
“CCGGAGAGAAGGCTCCGGTTCAGCACTGAGATCAGGACGG (double strand) [off-target KXWACMTR (OT3)]” was tested, and the activity ([13]; parent 1.59) was 0.19 % indels and the activity ([14]; 6 ug dose) was 1.59 % indels.
Substance “CCTACCCCCACCACCTCACCTTCCCTCAGCCTTGTGTTTCAGCCCCAGTTAGCTGCCCTTAGTTGCTGATGTATTG (double strand) [off-target GJZEIYTO (OT2)]” has an activity ([15]; 60 ug/mL each mRNA) of 2.81 % indels and an activity ([16]; 60 ug/mL each mRNA) of 0.31 % indels.
For “CTTCCTGCGGGGTTTTGTGCAAATAACCCATGCTCGGGAGCGAGGCCCTGGGAAGGAGTATCTCGCTTCTTTGGGT (double strand) [off-target NIFMAEVG (OT1)]”, the activity [15, 23] was 9.04 % indels, the activity ([17]; parent 21.96) was 8.9 % indels and the activity ([18]; parent 21.96) was 0.89 % indels. It also gave an activity [16, 23] of 0.75 % indels, an activity [19] of 0.05 % indels and an activity [20] of 0.17 % indels. The activity [21] was 0.03 % indels and the activity ([22]; parent 28.0) was 0.55 % indels.
“GACTCATTCATCCACTCATTCTGAGCACTTGCTGCACACTAGGCCCTGGGCTGGGGCTTCAGCCCAGGAGTTCACT (double strand) [off-target ZJCRPAXW (OT4)]” showed an activity ([15]; 60 ug/mL each mRNA) of 1.12 % indels and an activity ([16]; 60 ug/mL each mRNA) of 0.65 % indels.
In the case of “TCAGTGATTGGGTTCCGAATCCTCCTCCTGAAAGTGGCCG (double strand) [TRAC intended target JBSCKVMP]”, the activity [8] is reported as 89.1 % indels, the activity [9] is reported as 88.3 % indels and the activity [10] is reported as 87.1 % indels. For the same substance, the activity [11] was 89 % indels, the activity [12] was 70.3 % indels and the activity ([13]; parent 62.59) was 70 % indels. It also gave an activity ([14]; 400 ng mRNA each ZFN) of 90.7 % indels.
In the case of “TCCTCCATGCTCAGAAAGCCTTTCTTGGAGCCAGGCACACAGGAAATGTTAGCTAGTTAGCATTGGCTCTAATACT (double strand) [off-target PEVYOHIU (OT3)]”, the activity [15, 23] is reported as 0.65 % indels, the activity [17] is reported as 4.4 % indels and the activity [18] is reported as 0.13 % indels. The activity [16, 23] was 0.08 % indels, the activity [19] was 0.03 % indels and the activity ([20]; no evidence of cleavage) was 0.02 % indels. For the same substance, the activity [21] was 0.02 % indels and the activity ([22]; parent 4.77) was 0.04 % indels.
Substance “TGGCCCTTTGCAGAAAAGGTTGTTGAACCCTACCGTAAAC (double strand) [off-target XVFENVRX (OT11)]” has an activity [8] of 3.27 % indels, an activity [9] of 0.79 % indels and an activity [10] of 0.93 % indels. The activity [11] was 1.09 % indels, the activity [12] was 0.14 % indels and the activity ([13]; parent 4.32) was 0.47 % indels. For the same substance, the activity ([14]; 400 ng mRNA each ZFN) was 5.82 % indels.
